Assay results reported in the supplement of paper PMC9170038.

Tested on: K4 kissing-loop RNA reporter
Assay: apparent KD of K4 kissing-loop reporter; higher = weaker reporter binding
Conditions: Eterna round: R107
Procedure: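 RNA-MaP round R107: designed RNA switches with theophylline, tryptophan, arginine or FMN aptamers are transcribed on-chip within common flanks. They are titrated with a labelled K4 kissing-loop RNA reporter in RNA-MaP buffer (100 mM Tris pH 7.5, 80 mM KCl, 4 mM MgCl2), without ligand or with the indicated ligand. Median apparent KD per design.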

[1] = input ligand: theophylline 20 uM
[2] = input ligand: tryptophan 2.4 mM
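Note: bound reporter read as fluorescence of individual clusters on recovered sequencing chips by microscopy, with normalized cluster intensities fitted with a binding model.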

| Sequence | apparent KD of K4 kissing-loop reporter (input ligand: FMN 200 uM) [nM] | apparent KD of K4 kissing-loop reporter (input ligand: arginine 13.2 mM) [nM] | apparent KD of K4 kissing-loop reporter (input ligand: none) [nM] | apparent KD of K4 kissing-loop reporter [1] [nM] | apparent KD of K4 kissing-loop reporter [2] [nM] |
| --- | --- | --- | --- | --- | --- |
| GGGUUGAGCGGAAGGAGCGGCUGAACCAGUGAUGUUGGUUAAUCCAAGUGAUGUUGGAAAAGCCAGGUAGGUCGCCGCUUUAUCC [Same State Arg B GF 3] | 979 | 533 | 1180 | 965 | 774 |
| AAAAUAAAUAGCAGUCAUGGAGUGAUGUUCCGAGGACCGGUACGGCCGCCACUCGACCAUCAUAAGAUGGAUGGCGAAGACUGCA [#SwitchBubble 24 #K4Early] | 515 | 544 | 483 | 445 | 864 |
| AUUAUAAAGGCGGCCGCCACUAGUGAUGUUAGUGACUAUAGUAUUAUCUAUAGAAUAAAAUAAAAUAGGACCGGGCCAAAAUAUU [AstrosExTryB#2] | 535 | 411 | 525 | 493 | 464 |
| AGUACAAUGGCGGCCGCCACUCAAUGGCAGAUCAAAGAUCUGCAUCACUCAGUGAUGUUGAGUGAGAGGACCGGGCCUUUGUACA [Omei KL Tryp B SS B v7] | 564 | 517 | 563 | 505 | 157 |
| AAGCAGUCACUCGACACCAUCGAAGAUGGGCGAGGACCGGUACGGCCGCCACUCGGAGUGAUGUUCUGAUGACUGCAAAAUAAAA [MatMod 9 - Jieux - Exclusion - Tryptophan A] | 99.9 | 60.1 | 86.3 | 158 | 75.6 |
| ACGUCACGUAUACUCGUGGUUUCGAUCGAUACCAGUAGCGAGAGUUACCCUUGGCAGCGACAUGAGUGAUGUUCAUGUGCGAAGA [KL-XTheo-A3 #analogue] | 118 | 106 | 112 | 104 | 111 |
| AAGCAGUUCUCAAAGAGUACUGCAGGACAGCAGGAUAUAGUGAUGUUGAGAAGGGCUGUCCCGUCUGCAUGAAACAUGCAGACGA [Simply curious] | 1350 | 688 | 808 | 1290 | 688 |
| GGAUAGGACAGAGGAUAUGGUAGUGAUGUUACCAAACUGGUUACUCUUGUCAGAAAACUGGCAUCUCCAGAAGGCUGUCCUAUCG [KL-XFMN-B10] | 594 | 109 | 123 | 135 | 127 |
| AGUUCUUGCCGAAGGAGCGAGGCAGAGUGAUGUUCUGCAAAGAGGUCGAAAGACCUCCUGCCUCAGGUAGGUCGCGGCAUGAACA [Omei KL Arginine B Exc A v5] | 814 | 942 | 652 | 509 | 1260 |
| UACAUAUUAUUUAACAUAAAUUUUACAGAAGGAGCGUGAUCAUUCACAGGUAGGUCGCUGAACUAGUGAUGUUAGUUUUAUUUUU [JR_Nu_ExcArginiA_Sub025] | 62.7 | 96.1 | 71.5 | 97 | 57.3 |
| AGAUUCGACACGGCCGCCACUUCCGGUGGCUGGUGUCAUGGUGCGCGUGAGUGAUGUUUAUGUGGGAGGACCGGGUGUUGAGUCU [whbob_Ex_Tryp_B_w42] | 616 | 393 | 654 | 559 | 704 |
| AUGCGCGUGCGAUGGAAAUCGCACGCGCAUCGAGGACCGGUACGGCCGCCACUCGCUCGCGCCGAGUGAUGUUCGGCCGGCGAAC [#2 SameState - Tryptophan_A Attempt #3 (HarryS)] | 180 | 162 | 283 | 329 | 599 |
| ACGCCGAGGACGGCCGCCACUAUGACGAAGUCCGUUCCUAUUACUGCGCGAGUGAUGUUCACGACUAGGACCGGGUCUAUGAGCU [theeternabot_exclusion_KL_Trp_B_28] | 775 | 708 | 843 | 771 | 631 |
| AAUGCAUAGUGAAGGAGCGCGAUUUGCAGUGAUGUUGCAAAUUUAAACAAUCUUAUCUUUUCGCAGGUAGGUCGCACUAUGCAUA [JR_Nu_SSArginiB_Sub021] | 94.1 | 90.3 | 88.2 | 80.9 | 88.7 |
| AAUAAUGGAGUGAUGUUCCAGUAAUGGGAUACCAGACAUGAAAAUGUCCCUUGGCAGCUCAAAGGUCUAGUGAUGUUAUAAAGAA [KL-SSTheo-A6] | 475 | 510 | 554 | 401 | 377 |
| CGCAGGAUGGAAGGAUAUGGGAGUUGACGUCGCCGAGCUAACCUUCUGCACGGAGUGAUGUUUAGACCAGAAGGUCCUCGGAGCA [theeternabot_exclusion_KL_FMN_B_17] | 1210 | 997 | 1610 | 1150 | 1180 |
| CGCCGCAAGGCGAGCGCUCCCACUCCGGAAGGAGCGCCCGGAAGGGCAGGUAGGUCGCCGGAGUGAUGUUCCGGUGGAGGGCUCG [#2 Exclusion - Arginine A Attempt #13 (Inspired by Omei)] | 358 | 248 | 334 | 491 | 416 |
